This passage reports Ki results from article PMC5840032 (Bioorganic & medicinal chemistry, 2017).

Broadly, the Ki is a measure of affinity in units of concentration, obtained from inhibition or displacement. Read a low Ki as tighter binding.

The target in this test is anthrax lethal factor (LF) protease (UniProt P15917 34-809). The test is described as follows: enzyme inhibition assay.
Chain of anthrax lethal factor (LF) protease (P15917 34-809): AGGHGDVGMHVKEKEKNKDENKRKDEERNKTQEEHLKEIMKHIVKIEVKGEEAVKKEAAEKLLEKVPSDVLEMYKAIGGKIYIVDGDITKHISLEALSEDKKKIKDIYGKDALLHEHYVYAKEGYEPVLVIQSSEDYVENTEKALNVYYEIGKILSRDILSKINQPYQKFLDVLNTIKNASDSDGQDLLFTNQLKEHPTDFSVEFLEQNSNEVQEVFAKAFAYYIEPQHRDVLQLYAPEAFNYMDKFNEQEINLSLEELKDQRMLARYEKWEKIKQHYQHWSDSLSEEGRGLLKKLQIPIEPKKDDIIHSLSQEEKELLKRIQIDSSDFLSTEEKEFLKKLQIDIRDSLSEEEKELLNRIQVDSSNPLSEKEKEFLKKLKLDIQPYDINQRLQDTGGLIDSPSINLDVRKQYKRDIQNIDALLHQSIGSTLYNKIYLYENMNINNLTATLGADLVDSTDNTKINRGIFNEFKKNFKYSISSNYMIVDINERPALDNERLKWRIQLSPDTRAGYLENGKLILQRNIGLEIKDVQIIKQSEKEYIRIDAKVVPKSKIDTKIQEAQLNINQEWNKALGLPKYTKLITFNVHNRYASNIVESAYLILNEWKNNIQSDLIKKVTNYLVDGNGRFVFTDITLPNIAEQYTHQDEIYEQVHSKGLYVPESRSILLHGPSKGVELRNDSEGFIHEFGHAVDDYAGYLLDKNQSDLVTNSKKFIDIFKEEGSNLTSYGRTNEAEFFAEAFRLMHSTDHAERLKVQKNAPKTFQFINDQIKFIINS

GFCRCACLHGVCRCICTR (not fully specified; backbone-cyclized; three disulfide bonds) [RTD-1 analog clone #14] showed a Ki of 946 ± 47 nM.
In the case of GFCRCPCSRYGCWCICTR (not fully specified; backbone-cyclized; three disulfide bonds) [RTD-1 analog clone #52], the Ki was 946 ± 58 nM.
